For one molecule, EC50 results are on record in WO2021180110A1.

In the assay the target is COVID-19 Spike-RBD-his fusion protein (novel coronavirus (COVID-19)), P0DTC2. The settings on record: remark: other sources report otherwise.

B1: CD147-his fusion protein, P35613 22-205 (receptor)
chain: AAGTVFTTVEDLGSKILLTCSLNDSATEVTGHRWLKGGVVLKEDALPGQKTEFKVDSDDQWGEYSCVFLPEPMGTANIQLHGPPRVKAVKSSEHINEGETAMLVCKSESVPPVTDWAWYKITDSEDKALMNGSESRFFVSSSQGRSELHIENLNMEADPGQYRCNGTSSKGSDQAIITLRVRSH
For the molecule B1, the concentration giving a half-maximal response (EC50) (as a rule, the midpoint of the concentration-response curve) came out at 68.8 µg/mL.
